Laboratory results reported in patent US20230338555A1 (IONIS PHARMACEUTICALS, published 2023).
Where two headings read alike, the source gives them in different places. Ends that are not written are not given here. * marks the point of attachment. Azidoacetyl = [N-]=[N+]=NCC(=O)*

T1: human sortilin stably expressed on HEK 293 cells (HEK-SORT1 cells) (human, UniProt Q99523 78-831)
T1 sequence (looked up): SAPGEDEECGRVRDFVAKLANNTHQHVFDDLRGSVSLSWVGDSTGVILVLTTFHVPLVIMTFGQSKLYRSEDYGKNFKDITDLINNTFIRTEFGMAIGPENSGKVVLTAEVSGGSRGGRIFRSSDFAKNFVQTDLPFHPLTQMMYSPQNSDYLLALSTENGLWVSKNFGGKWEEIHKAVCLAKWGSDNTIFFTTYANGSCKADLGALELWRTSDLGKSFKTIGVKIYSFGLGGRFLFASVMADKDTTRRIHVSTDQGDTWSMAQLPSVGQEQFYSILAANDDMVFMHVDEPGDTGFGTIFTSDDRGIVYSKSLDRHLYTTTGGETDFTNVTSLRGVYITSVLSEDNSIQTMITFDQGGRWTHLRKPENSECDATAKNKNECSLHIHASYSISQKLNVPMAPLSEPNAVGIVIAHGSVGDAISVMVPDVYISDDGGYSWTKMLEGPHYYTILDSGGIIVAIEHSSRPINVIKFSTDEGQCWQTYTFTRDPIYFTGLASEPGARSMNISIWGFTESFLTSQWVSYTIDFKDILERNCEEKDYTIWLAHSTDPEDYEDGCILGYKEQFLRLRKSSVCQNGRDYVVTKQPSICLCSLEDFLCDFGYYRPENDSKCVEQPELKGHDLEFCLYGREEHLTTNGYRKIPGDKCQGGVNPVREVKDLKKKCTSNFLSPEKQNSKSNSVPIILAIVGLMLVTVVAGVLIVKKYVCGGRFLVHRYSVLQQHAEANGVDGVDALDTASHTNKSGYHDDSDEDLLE


Legend:
Assay in all cases: cell-based or functional assay
[1] = target: T1, human sortilin stably expressed on HEK …
[2] = target: T1, human sortilin stably expressed on HEK …; remark: listed apart in the source
[3] = target: T1, human sortilin stably expressed on HEK …; remark: listed apart in the source
[4] = target: T1, human sortilin stably expressed on HEK …; remark: listed apart in the source
[5] = target: T1, human sortilin stably expressed on HEK …; remark: listed apart in the source
[6] = target: T1, human sortilin stably expressed on HEK …; remark: listed apart in the source

Row | Binder | Mean Fluorescence Intensity (MFI), uptake 37C-4C, at 12 nM [1] | Mean Fluorescence Intensity (MFI), uptake 37C-4C, at 37 nM [1] | Mean Fluorescence Intensity (MFI), uptake 37C-4C, at 111 nM [1] | Mean Fluorescence Intensity (MFI), uptake 37C-4C, at 333 nM [1] | Mean Fluorescence Intensity (MFI), uptake 37C-4C, at 1000 nM [1] | Mean Fluorescence Intensity (MFI), uptake 37C-4C, at 7 nM [5] | Mean Fluorescence Intensity (MFI), uptake 37C-4C, at 22 nM [5] | Mean Fluorescence Intensity (MFI), uptake 37C-4C, at 76 nM [5] | Mean Fluorescence Intensity (MFI), uptake 37C-4C, at 260 nM [5] | Mean Fluorescence Intensity (MFI), uptake 37C-4C, at 882 nM [5] | Mean Fluorescence Intensity (MFI), uptake 37C-4C, at 3000 nM [5] | further results
1 | LYENXPRRPYIL (not fully specified; position 1 is SO5P (5-oxoproline); internal lysine (LYEN-K) side chain azido-acetyl joined via triazolo-BCN carbamate / 6-aminohexanol linker to 5' end of … (SEQ ID NO 2, uniform MOE, phosphodiester, 3'-Cy3)) | 45 MFI | 53 MFI | 60 MFI | 73 MFI | 97 MFI | – | – | – | – | – | – | –
2 | XLYENKPKRPYIL (not fully specified; X at position 1 is 2-azido-acetyl lysine, joined via triazolo-BCN carbamate / 6-aminohexanol linker to 5' end of … (SEQ ID NO 2, uniform MOE, phosphodiester, 3'-Cy3)) [Compound No. 1270698, XLYENKPKRPYIL peptide conjugated to 20-mer MOE oligonucleotide with 3'-Cy3] | – | – | – | – | – | – | – | – | – | – | – | Mean Fluorescence Intensity (MFI), uptake 37C-4C, at 12 nM [2]: 35 MFI; Mean Fluorescence Intensity (MFI), uptake 37C-4C, at 37 nM [2]: 48 MFI; Mean Fluorescence Intensity (MFI), uptake 37C-4C, at 111 nM [2]: 78 MFI; Mean Fluorescence Intensity (MFI), uptake 37C-4C, at 333 nM [2]: 155 MFI; Mean Fluorescence Intensity (MFI), uptake 37C-4C, at 1000 nM [2]: 394 MFI
3 | KLYENKPRKPYIL (not fully specified (residue 1)) [Compound No. 1270696, XLYENKPRKPYIL peptide conjugated to 20-mer MOE oligonucleotide with 3'-Cy3] | – | – | – | – | – | – | – | – | – | – | – | Mean Fluorescence Intensity (MFI), uptake 37C-4C, at 12 nM [2]: 43 MFI; Mean Fluorescence Intensity (MFI), uptake 37C-4C, at 37 nM [2]: 61 MFI; Mean Fluorescence Intensity (MFI), uptake 37C-4C, at 111 nM [2]: 138 MFI; Mean Fluorescence Intensity (MFI), uptake 37C-4C, at 333 nM [2]: 312 MFI; Mean Fluorescence Intensity (MFI), uptake 37C-4C, at 1000 nM [2]: 1100 MFI
4 | KPPPAGSSPGLYENKPRRPYIL (not fully specified (residue 1); also: X side chain clicked via BCN (triazole) and 6-aminohexanol linker to 5' end of oligonucleotide CCAGGCTGGTTATGACTCAG (MOE, 3'-Cy3)) | 67 MFI | 119 MFI | 246 MFI | 812 MFI | 1390 MFI | 51 MFI | 122 MFI | 309 MFI | 937 MFI | 2070 MFI | 3380 MFI | Mean Fluorescence Intensity (MFI), uptake 37C-4C, at 12 nM [3]: 61 MFI; Mean Fluorescence Intensity (MFI), uptake 37C-4C, at 37 nM [3]: 124 MFI; Mean Fluorescence Intensity (MFI), uptake 37C-4C, at 111 nM [3]: 364 MFI; Mean Fluorescence Intensity (MFI), uptake 37C-4C, at 333 nM [3]: 839 MFI; Mean Fluorescence Intensity (MFI), uptake 37C-4C, at 1000 nM [3]: 1560 MFI; Mean Fluorescence Intensity (MFI), uptake 37C-4C, at 7 nM [4]: 53 MFI; Mean Fluorescence Intensity (MFI), uptake 37C-4C, at 22 nM [4]: 102 MFI; Mean Fluorescence Intensity (MFI), uptake 37C-4C, at 76 nM [4]: 259 MFI; Mean Fluorescence Intensity (MFI), uptake 37C-4C, at 260 nM [4]: 817 MFI; Mean Fluorescence Intensity (MFI), uptake 37C-4C, at 882 nM [4]: 2100 MFI; Mean Fluorescence Intensity (MFI), uptake 37C-4C, at 3000 nM [4]: 4220 MFI
5 | KAGMSGASAGLYENKPRRPYIL (not fully specified (residue 1); also: X side chain clicked via BCN (triazole) and 6-aminohexanol linker to 5' end of oligonucleotide CCAGGCTGGTTATGACTCAG (MOE, 3'-Cy3)) | – | – | – | – | – | 55 MFI | 85 MFI | 306 MFI | 868 MFI | 1950 MFI | 2880 MFI | –
6 | CPPPAGSSPGLYENKPRRPYIL (not fully specified) | – | – | – | – | – | – | – | – | – | – | – | Mean Fluorescence Intensity (MFI), uptake 37C-4C, at 7 nM [4]: 47 MFI; Mean Fluorescence Intensity (MFI), uptake 37C-4C, at 22 nM [4]: 69 MFI; Mean Fluorescence Intensity (MFI), uptake 37C-4C, at 76 nM [4]: 205 MFI; Mean Fluorescence Intensity (MFI), uptake 37C-4C, at 260 nM [4]: 675 MFI; Mean Fluorescence Intensity (MFI), uptake 37C-4C, at 882 nM [4]: 1810 MFI; Mean Fluorescence Intensity (MFI), uptake 37C-4C, at 3000 nM [4]: 3140 MFI
7 | KPPPAGSSPGLYENKPRRPYIL (not fully specified (residue 1); also: oligonucleotide hybridized to complementary MOE strand CTGAGTCATAACCAGCCTGG (duplex)) [1162756 duplex (Compound No. 1162756 complexed to complementary MOE oligonucleotide …)] | – | – | – | – | – | – | – | – | – | – | – | Mean Fluorescence Intensity (MFI), uptake 37C-4C, at 12 nM [3]: 41 MFI; Mean Fluorescence Intensity (MFI), uptake 37C-4C, at 37 nM [3]: 52 MFI; Mean Fluorescence Intensity (MFI), uptake 37C-4C, at 111 nM [3]: 71 MFI; Mean Fluorescence Intensity (MFI), uptake 37C-4C, at 333 nM [3]: 130 MFI; Mean Fluorescence Intensity (MFI), uptake 37C-4C, at 1000 nM [3]: 278 MFI
8 | KAGSIKPPPAGSSPGLYENKPRRPYIL (not fully specified (residue 1); also: X side chain clicked via BCN (triazole) and 6-aminohexanol linker to 5' end of oligonucleotide CCAGGCTGGTTATGACTCAG (MOE, 3'-Cy3)) | – | – | – | – | – | 90 MFI | 208 MFI | 609 MFI | 1530 MFI | 2510 MFI | 3390 MFI | –
9 | K(Azidoacetyl)LYENKPKKPYIL (not fully specified; printed as 2-azido-acetyl-KLYENKPKKPYIL; also: azide joined via triazolo-BCN carbamate/6-aminohexanol linker to 5' end of 20-mer MOE oligonucleotide CCAGGCTGGTTATGACTCAG (uniform MOE, phosphodiester, 3'-Cy3)) [Compound No. 1270697, … peptide conjugated to 20-mer MOE oligonucleotide with 3'-Cy3] | – | – | – | – | – | – | – | – | – | – | – | Mean Fluorescence Intensity (MFI), uptake 37C-4C, at 12 nM [2]: 39 MFI; Mean Fluorescence Intensity (MFI), uptake 37C-4C, at 37 nM [2]: 51 MFI; Mean Fluorescence Intensity (MFI), uptake 37C-4C, at 111 nM [2]: 86 MFI; Mean Fluorescence Intensity (MFI), uptake 37C-4C, at 333 nM [2]: 185 MFI; Mean Fluorescence Intensity (MFI), uptake 37C-4C, at 1000 nM [2]: 474 MFI
10 | LYENXPRRPYIL (not fully specified; position 1 is SO5P (5-oxoproline); internal lysine (LYEN-K) carries the azido-acetyl group joined to Cy3-BCN reagent (Cy3 label)) [Compound 17-AE-9199, Cy3-labeled [SO5P]LYEN[azido-acetyl-K]PRRPYIL peptide] | 174 MFI | 378 MFI | 825 MFI | 1090 MFI | 1220 MFI | – | – | – | – | – | – | –
11 | XLYENKPRRPYIL (X at position 1 is 2-azido-acetyl lysine joined via BCN to a Cy3-labeled phosphorodiamidate morpholino oligomer) [Compound No. 18-AJ9998, Morpholino oligomer-neurotensin conjugate 11 (Cy3 labeled)] | – | – | – | – | – | – | – | – | – | – | – | Mean Fluorescence Intensity (MFI), uptake 37C-4C, at 12 nM [6]: 70 MFI; Mean Fluorescence Intensity (MFI), uptake 37C-4C, at 37 nM [6]: 75 MFI; Mean Fluorescence Intensity (MFI), uptake 37C-4C, at 111 nM [6]: 86 MFI; Mean Fluorescence Intensity (MFI), uptake 37C-4C, at 333 nM [6]: 138 MFI; Mean Fluorescence Intensity (MFI), uptake 37C-4C, at 1000 nM [6]: 267 MFI; Mean Fluorescence Intensity (MFI), uptake 37C-4C, at 3000 nM [6]: 631 MFI
12 | KPAPSGPSPGLYENKPRRPYIL (not fully specified (residue 1); also: X side chain clicked via BCN (triazole) and 6-aminohexanol linker to 5' end of oligonucleotide CCAGGCTGGTTATGACTCAG (MOE, 3'-Cy3)) | – | – | – | – | – | 53 MFI | 130 MFI | 413 MFI | 1230 MFI | 2430 MFI | 3390 MFI | –
13 | KPPPAGSSPGLYENKPRRPYIL (not fully specified (residue 1); also: Cy3 label attached by BCN click to the azide) [Compound 17-AH-1492, Cy3-labeled extended neurotensin (eNT, …)] | 167 MFI | 390 MFI | 724 MFI | 1030 MFI | 1260 MFI | 84 MFI | 266 MFI | 593 MFI | 869 MFI | 1180 MFI | 1440 MFI | Mean Fluorescence Intensity (MFI), uptake 37C-4C, at 12 nM [3]: 108 MFI; Mean Fluorescence Intensity (MFI), uptake 37C-4C, at 37 nM [3]: 334 MFI; Mean Fluorescence Intensity (MFI), uptake 37C-4C, at 111 nM [3]: 763 MFI; Mean Fluorescence Intensity (MFI), uptake 37C-4C, at 333 nM [3]: 1100 MFI; Mean Fluorescence Intensity (MFI), uptake 37C-4C, at 1000 nM [3]: 1360 MFI
